Earlier results as cited in paper PMC3962080.

Target: human serum albumin (Homo sapiens) (UniProt P02768)

In the case of “G148-ABD albumin-binding domain (from UniProt P06654)”, the Kd is given as 5 nM.
